Source: doi:10.1101/2024.09.24.614577 (bioRxiv, 2024)

Molecular target: the molecule itself
Assay: cryo-EM structure

B1: human GPR155 (residues 1-870), construct without the eGFP tag (receptor, UniProt Q7Z3F1 1-870, looked up)
chain: MNSNLPAENLTIAVNMTKTLPTAVTHGFNSTNDPPSMSITRLFPALLECFGIVLCGYIAGRANVITSTQAKGLGNFVSRFALPALLFKNMVVLNFSNVDWSFLYSILIAKASVFFIVCVLTLLVASPDSRFSKAGLFPIFATQSNDFALGYPIVEALYQTTYPEYLQYIYLVAPISLMMLNPIGFIFCEIQKWKDTQNASQNKIKIVGLGLLRVLQNPIVFMVFIGIAFNFILDRKVPVYVENFLDGLGNSFSGSALFYLGLTMVGKIKRLKKSAFVVLILLITAKLLVLPLLCREMVELLDKGDSVVNHTSLSNYAFLYGVFPVAPGVAIFATQFNMEVEIITSGMVISTFVSAPIMYVSAWLLTFPTMDPKPLAYAIQNVSFDISIVSLISLIWSLAILLLSKKYKQLPHMLTTNLLIAQSIVCAGMMIWNFVKEKNFVGQILVFVLLYSSLYSTYLWTGLLAISLFLLKKRERVQIPVGIIIISGWGIPALLVGVLLITGKHNGDSIDSAFFYGKEQMITTAVTLFCSILIAGISLMCMNQTAQAGSYEGFDQSQSHKVVEPGNTAFEESPAPVNEPELFTSSIPETSCCSCSMGNGELHCPSIEPIANTSTSEPVIPSFEKNNHCVSRCNSQSCILAQEEEQYLQSGDQQLTRHVLLCLLLIIGLFANLSSCLWWLFNQEPGRLYVELQFFCAVFNFGQGFISFGIFGLDKHLIILPFKRRLEFLWNNKDTAENRDSPVSEEIKMTCQQFIHYHRDLCIRNIVKERRCGAKTSAGTFCGCDLVSWLIEVGLASDRGEAVIYGDRLVQGGVIQHITNEYEFRDEYLFYRFLQKSPEQSPPAINANTLQQERYKEIEHSSPPSHSPKT
Q: Which “stoichiometry N” value does the source give for B1 here?
A: The value was 2.
